In assay [1] the test system is human iPS cells (Ff-I01 strain). Briefly: Immunostaining of aggregate sections for retinal tissue marker Chx10. The format is cell-based. The source says: Cell aggregates on day 16 after the start of suspension culturing were fixed with 4% para-formaldehyde to prepare frozen sections. These frozen sections were immunostained for Chx10 (anti-Chx10 antibody, Exalpha, sheep), which is one of the retinal tissue markers. These immunostained sections were observed under a fluorescence microscope.
Cell aggregates on day 16 after the start of suspension culturing were fixed with 4% para-formaldehyde to prepare frozen sections. These frozen sections were immunostained for Chx10 (anti-Chx10 antibody, Exalpha, sheep), which is one of the retinal tissue markers, and observed under a fluorescence microscope. […] In addition, the proportion of Chx10-positive cells in the total cells is about 80% under conditions with the addition of BMP4 twice to maintain the final concentration of 5 nM (FIG. 23, D)
The cell aggregates on day 19 after the start of suspension culturing were fixed with 4% para-formaldehyde to prepare frozen sections. These frozen sections were immunostained for Chx10 (anti-Chx10 antibody, Exalpha, sheep), which is one of the retinal tissue markers. These immunostained sections were observed under an inverted fluorescence microscope. As a result, the proportion of Chx10-positive cells in the total cells is about 70% under conditions with the addition of BMP4 twice to maintain the final concentration of 1.5 nM ([…]). In addition, the proportion of Chx10-positive cells in the total cells is about 90% under conditions with the addition of BMP4 twice to maintain the final concentration of 5 nM (FIG. 34, D).
The thus-prepared cell aggregates on day 19 after the start of suspension culturing were fixed with 4% para-formaldehyde to prepare frozen sections. These frozen sections were immunostained for Chx10 (anti-Chx10 antibody, Exalpha, sheep), which is one of the retinal tissue markers, and observed under a fluorescence microscope.

The test system is the same in assay [2]. The experiment in a line: Neural tissue / neuroepithelium formation in cell aggregates, bright field observation. The format is cell-based. On the procedure:
At the time of the start of suspension culturing (day 0 after the start of suspension culturing, […]), Y27632 ([…]) were added to the above serum-free medium (FIG. 22). By day 2 after the start of suspension culturing, a cell aggregate was formed (step 2 completed, step 3 start) under any conditions. On day 3 or later from the start of suspension culturing, BMP4 was added under 3 conditions including the following conditions 1-3. • Condition 1: (+BMP4 addition once) On day 3 of suspension culturing, a medium (50 μl) free of Y27632 and SAG, and containing human recombinant BMP4 (manufactured by R&D) was added such that the final concentration of exogenous human recombinant BMP4 was 1.5 nM (55 ng/ml). On day 6 or later from the start of suspension culturing, a half amount of the medium was changed to a serum-free medium free of Y27632, SAG and human recombinant BMP4. • Condition 2: (+BMP4 addition twice) On day 3 of suspension culturing, a medium (50 μl) free of Y27632, SAG and containing human recombinant BMP4 (manufactured by R&D) was added such that the final concentration of exogenous human recombinant BMP4 was 1.5 nM (55 ng/ml). On day 6 from the start of suspension culturing, 50 μl of the medium was discarded, and 50 μl of a medium free of Y27632 and SAG and containing human recombinant BMP4 (manufactured by R&D) was added to maintain the final concentration of exogenous human recombinant BMP4 at 1.5 nM (55 ng/ml). On day 9 or later from the start of suspension culturing, a half amount of the medium was changed with a serum-free medium free of Y27632, SAG, and human recombinant BMP4. • Condition 3: (+BMP4 addition three times) On day 3 of suspension culturing, a medium (50 μl) free of Y27632, SAG and containing human recombinant BMP4 (manufactured by R&D) was added such that the final concentration of exogenous human recombinant BMP4 was 1.5 nM (55 ng/ml). On days 6 and 9 from the start of suspension culturing, 50 μl of the medium was discarded, and 50 μl of a medium free of Y27632 and SAG and containing human recombinant BMP4 (manufactured by R&D) was added to maintain the final concentration of exogenous human recombinant BMP4 at 1.5 nM (55 ng/ml). On day 12 or later from the start of suspension culturing, a half amount of the medium was changed with a serum-free medium free of Y27632, SAG and human recombinant BMP4. […]
On day 3 after the start of suspension culturing, a medium (50 μl) free of Y27632 and SAG, and containing human recombinant BMP4 (manufactured by R&D) was added such that the final concentration of exogenous human recombinant BMP4 was 1.5 nM (55 ng/ml) or 5 nM (183 ng/ml). […]

B1: BMP4: human recombinant BMP4 (manufactured by R&D), BMP signal transduction pathway activating substance (protein, UniProt P12644 293-408, looked up)
Bone morphogenetic protein 4: SPKHHSQRARKKNKNCRRHSLYVDFSDVGWNDWIVAPPGYQAFYCHGDCPFPLADHLNSTNHAIVQTLVNSVNSSIPKACCVPTELSAISMLYLDEYDKVVLKNYQEMVVEGCGCR
As for B1, the “proportion of Chx10-positive cells in the total cells” value in assay [1] (SAG 300 nM 2 days in step 1, SAG 300 nM in step 2, BMP4 1.5 nM added 2 or 3 times, day 16) is “about 80%”; in assay [1] (SAG 300 nM 2 days in step 1, SAG 300 nM in step 2, BMP4 1.5 nM added once (day 3), day 16), “about 60%”; in assay [1] (StemFit AK03, SAG 300 nM 2 days in step 1, SAG 1000 nM in step 2, BMP4 added twice to maintain 1.5 nM, day 16), “about 70%”; in assay [1] (StemFit AK03, SAG 300 nM 2 days in step 1, SAG 1000 nM in step 2, BMP4 added twice to maintain 5 nM, day 16) it was “about 80%”; in assay [1] (StemFit AK03N, SAG 300 nM 2 days in step 1, SAG 500 nM in step 2, BMP4 added twice to maintain 1.5 nM, day 19), “about 70%”; in assay [1] (StemFit AK03N, SAG 300 nM 2 days in step 1, SAG 500 nM in step 2, BMP4 added twice to maintain 5 nM, day 19), “about 90%”. In addition, the “cell aggregate and neural tissue formation” value was “a neural tissue could be formed efficiently” in assay [2] (SAG 300 nM 2 days in step 1, SAG 300 nM in step 2, BMP4 1.5 nM added 1, 2 or 3 times in step 3, day 16); “a neural tissue could be formed efficiently” in assay [2] (SAG 300 nM 2 days in step 1, SAG 1000 nM in step 2, BMP4 at 1.5 nM and 5 nM in step 3, day 16); “a neural tissue can be formed efficiently” in assay [2] (StemFit AK03N, SAG 300 nM 2 days in step 1, SAG 500 nM in step 2, BMP4 at 1.5 nM or 5 nM, day 19).

The values are drawn from patent US12492373B2, “Production method for nerve tissue” (Racthera Co., Ltd., priority 2014, dated 2025).
